Data on 18 molecules can be found in patent publication US20260209386A1 (MYTHIC THERAPEUTICS, published 2026).

The target of assay [1] is T1, Human PTK7 Protein, His Tag, Acro Biosystems (human, UniProt Q13308 31-704).
T1 construct: Bought recombinant protein; also called CCK4; not shown: His tag
T1 sequence: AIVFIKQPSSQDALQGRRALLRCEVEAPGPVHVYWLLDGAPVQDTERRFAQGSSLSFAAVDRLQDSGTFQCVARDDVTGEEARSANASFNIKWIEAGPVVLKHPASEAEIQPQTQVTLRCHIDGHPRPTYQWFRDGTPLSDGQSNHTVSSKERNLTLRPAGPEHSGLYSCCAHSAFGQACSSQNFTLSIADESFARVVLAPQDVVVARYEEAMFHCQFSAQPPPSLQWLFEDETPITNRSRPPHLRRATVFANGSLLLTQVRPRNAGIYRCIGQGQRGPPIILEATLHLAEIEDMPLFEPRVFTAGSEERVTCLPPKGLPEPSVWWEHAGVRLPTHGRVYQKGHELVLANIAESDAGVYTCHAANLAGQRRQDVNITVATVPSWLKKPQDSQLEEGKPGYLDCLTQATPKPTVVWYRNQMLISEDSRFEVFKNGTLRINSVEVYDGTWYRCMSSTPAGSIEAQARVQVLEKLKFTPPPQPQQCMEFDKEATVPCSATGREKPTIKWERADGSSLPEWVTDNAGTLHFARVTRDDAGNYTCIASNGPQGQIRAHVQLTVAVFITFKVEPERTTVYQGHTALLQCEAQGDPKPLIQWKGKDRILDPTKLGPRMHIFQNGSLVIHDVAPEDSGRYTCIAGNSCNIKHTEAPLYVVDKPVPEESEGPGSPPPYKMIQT
Put plainly: BLI, anti-human Fc capture, 50 nM PTK7; 1 = pH dependent binding relative to parent. A general note: Biolayer interferometry detects binding as a change in optical thickness at a sensor tip.

Assay [2] addresses T2, Human PTK7 Protein, His Tag (Acro Biosystems) (human, UniProt Q13308 31-704).
T2 construct: Bought His-tagged recombinant human PTK7; also called CCK4; Tyrosine-protein kinase-like 7
T2 sequence: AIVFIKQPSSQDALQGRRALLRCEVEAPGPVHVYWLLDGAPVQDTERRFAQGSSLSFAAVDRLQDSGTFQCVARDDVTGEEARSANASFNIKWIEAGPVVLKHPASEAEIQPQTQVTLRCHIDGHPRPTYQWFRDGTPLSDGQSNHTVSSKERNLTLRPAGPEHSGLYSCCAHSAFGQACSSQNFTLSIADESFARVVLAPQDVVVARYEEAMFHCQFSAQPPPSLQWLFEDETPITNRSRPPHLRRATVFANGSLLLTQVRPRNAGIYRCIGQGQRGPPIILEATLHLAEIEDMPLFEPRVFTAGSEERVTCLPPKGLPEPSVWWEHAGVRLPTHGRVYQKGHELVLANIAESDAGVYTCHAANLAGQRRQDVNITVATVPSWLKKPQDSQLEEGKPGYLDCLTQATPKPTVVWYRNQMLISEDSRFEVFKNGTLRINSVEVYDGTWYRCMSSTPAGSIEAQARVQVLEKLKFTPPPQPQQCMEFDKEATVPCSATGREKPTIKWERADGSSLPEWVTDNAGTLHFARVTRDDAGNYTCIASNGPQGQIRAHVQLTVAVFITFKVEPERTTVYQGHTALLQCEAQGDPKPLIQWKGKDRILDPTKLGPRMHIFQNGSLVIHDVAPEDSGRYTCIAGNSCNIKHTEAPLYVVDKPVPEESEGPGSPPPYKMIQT
Briefly: BLI (Octet), antibody on anti-human Fc sensor, 50 nM PTK7; 2 = substantially similar binding.

B1: MYT11117 (antibody, V domains shown)
VH: EVQLVESGGGLVQPGGSLRLSCTASGFSLSTYAMSWVRQAPGKGLEWVGMIYINHNTYYASWAKGRFTISRDTSKNTVYLQMNSLRAEDTAVYFCARDIGISYYIGVSLWGQGTLVTVSS
VL: EIVMTQSPSTLSASVGDRVIITCQASQSIGTRLSWYQQKPGKAPKLLIYGASKLATGVPSRFSGSGSGAEFTLTISSLQPDDFATYYCLGEYSYTTTDGIAFGQGTKLTVL
notes: MYT9412 HC variant
For B1, the binding result in assay [1] is recorded as “binds”.

B2: MYT11103 (antibody, V domains shown)
VH: EVQLVESGGGLVQPGGSLRLSCTASGHSLSTYAMSWVRQAPGKGLEWVGMIYINDNTYYASWAKGRFTISRDTSKNTVYLQMNSLRAEDTAVYFCARDIGISYYIGVSLWGQGTLVTVSS
VL: EIVMTQSPSTLSASVGDRVIITCQASQSIGTRLSWYQQKPGKAPKLLIYGASKLATGVPSRFSGSGSGAEFTLTISSLQPDDFATYYCLGEYSYTTTDGIAFGQGTKLTVL
notes: MYT9412 HC variant
For the molecule B2, the binding result in assay [1] was “binds”.

B3: MYT11115 (antibody, V domains shown)
VH: EVQLVESGGGLVQPGGSLRLSCTASGFSLSTYAMSWVRQAPGKGLEWVGMIYHNDNTYYASWAKGRFTISRDTSKNTVYLQMNSLRAEDTAVYFCARDIGISYYIGVSLWGQGTLVTVSS
VL: EIVMTQSPSTLSASVGDRVIITCQASQSIGTRLSWYQQKPGKAPKLLIYGASKLATGVPSRFSGSGSGAEFTLTISSLQPDDFATYYCLGEYSYTTTDGIAFGQGTKLTVL
notes: MYT9412 HC variant
B3: in assay [1], the binding result is recorded as “binds”.

B4: MYT11105 (antibody, V domains shown)
VH: EVQLVESGGGLVQPGGSLRLSCTASGFSHSTYAMSWVRQAPGKGLEWVGMIYINDNTYYASWAKGRFTISRDTSKNTVYLQMNSLRAEDTAVYFCARDIGISYYIGVSLWGQGTLVTVSS
VL: EIVMTQSPSTLSASVGDRVIITCQASQSIGTRLSWYQQKPGKAPKLLIYGASKLATGVPSRFSGSGSGAEFTLTISSLQPDDFATYYCLGEYSYTTTDGIAFGQGTKLTVL
notes: MYT9412 HC variant
B4: the binding result in assay [1] was “binds”.

B5: MYT11137 (antibody, V domains shown)
VH: EVQLVESGGGLVQPGGSLRLSCTASGFSLSTYAMSWVRQAPGKGLEWVGMIYINDNTYYASWAKGRFTISRDTSKNTVYLQMNSLRAEDTAVYFCARDIGISYYHGVSLWGQGTLVTVSS
VL: EIVMTQSPSTLSASVGDRVIITCQASQSIGTRLSWYQQKPGKAPKLLIYGASKLATGVPSRFSGSGSGAEFTLTISSLQPDDFATYYCLGEYSYTTTDGIAFGQGTKLTVL
notes: MYT9412 HC variant
Turning to B5, in assay [1], the binding result is “binds”.

B6: MYT11146 (antibody, V domains shown)
VH: EVQLVESGGGLVQPGGSLRLSCTASGFSLSTYAMSWVRQAPGKGLEWVGMIYINDNTYYASWAKGRFTISRDTSKNTVYLQMNSLRAEDTAVYFCARDIGISYYIGVSLWGQGTLVTVSS
VL: EIVMTQSPSTLSASVGDRVIITCQHSQSIGTRLSWYQQKPGKAPKLLIYGASKLATGVPSRFSGSGSGAEFTLTISSLQPDDFATYYCLGEYSYTTTDGIAFGQGTKLTVL
notes: MYT9412 LC variant
Regarding B6, in assay [1], the binding result is listed as “binds”.

B7: MYT11144 (antibody, V domains shown)
VH: EVQLVESGGGLVQPGGSLRLSCTASGFSLSTYAMSWVRQAPGKGLEWVGMIYINDNTYYASWAKGRFTISRDTSKNTVYLQMNSLRAEDTAVYFCARAIGISYYIGVSLWGQGTLVTVSS
VL: EIVMTQSPSTLSASVGDRVIITCQASQSIGTRLSWYQQKPGKAPKLLIYGASKLATGVPSRFSGSGSGAEFTLTISSLQPDDFATYYCLGEYSYTTTDGIAFGQGTKLTVL
notes: MYT9412 HC alanine variant
As to B7, the binding result in assay [1] was “binds”.

B8: MYT11136 (antibody, V domains shown)
VH: EVQLVESGGGLVQPGGSLRLSCTASGFSLSTYAMSWVRQAPGKGLEWVGMIYINDNTYYASWAKGRFTISRDTSKNTVYLQMNSLRAEDTAVYFCARDIGISYHIGVSLWGQGTLVTVSS
VL: EIVMTQSPSTLSASVGDRVIITCQASQSIGTRLSWYQQKPGKAPKLLIYGASKLATGVPSRFSGSGSGAEFTLTISSLQPDDFATYYCLGEYSYTTTDGIAFGQGTKLTVL
notes: MYT9412 HC variant
Take B8: the binding result in assay [1] was “binds”.

B9: MYT11107 (antibody, V domains shown)
VH: EVQLVESGGGLVQPGGSLRLSCTASGFSLSHYAMSWVRQAPGKGLEWVGMIYINDNTYYASWAKGRFTISRDTSKNTVYLQMNSLRAEDTAVYFCARDIGISYYIGVSLWGQGTLVTVSS
VL: EIVMTQSPSTLSASVGDRVIITCQASQSIGTRLSWYQQKPGKAPKLLIYGASKLATGVPSRFSGSGSGAEFTLTISSLQPDDFATYYCLGEYSYTTTDGIAFGQGTKLTVL
notes: MYT9412 HC variant
Regarding B9, the binding result in assay [1] is “binds”.

B10: MYT11108 (antibody, V domains shown)
VH: EVQLVESGGGLVQPGGSLRLSCTASGFSLSTHAMSWVRQAPGKGLEWVGMIYINDNTYYASWAKGRFTISRDTSKNTVYLQMNSLRAEDTAVYFCARDIGISYYIGVSLWGQGTLVTVSS
VL: EIVMTQSPSTLSASVGDRVIITCQASQSIGTRLSWYQQKPGKAPKLLIYGASKLATGVPSRFSGSGSGAEFTLTISSLQPDDFATYYCLGEYSYTTTDGIAFGQGTKLTVL
notes: MYT9412 HC variant
As for B10, the binding result in assay [1] is on record as “binds”.

B11: MYT11150 (antibody, V domains shown)
VH: EVQLVESGGGLVQPGGSLRLSCTASGFSLSTYAMSWVRQAPGKGLEWVGMIYINDNTYYASWAKGRFTISRDTSKNTVYLQMNSLRAEDTAVYFCARDIGISYYIGVSLWGQGTLVTVSS
VL: EIVMTQSPSTLSASVGDRVIITCQASQSHGTRLSWYQQKPGKAPKLLIYGASKLATGVPSRFSGSGSGAEFTLTISSLQPDDFATYYCLGEYSYTTTDGIAFGQGTKLTVL
notes: MYT9412 LC variant
As for B11, the binding result in assay [1] is listed as “binds”.

B12: MYT11106 (antibody, V domains shown)
VH: EVQLVESGGGLVQPGGSLRLSCTASGFSLHTYAMSWVRQAPGKGLEWVGMIYINDNTYYASWAKGRFTISRDTSKNTVYLQMNSLRAEDTAVYFCARDIGISYYIGVSLWGQGTLVTVSS
VL: EIVMTQSPSTLSASVGDRVIITCQASQSIGTRLSWYQQKPGKAPKLLIYGASKLATGVPSRFSGSGSGAEFTLTISSLQPDDFATYYCLGEYSYTTTDGIAFGQGTKLTVL
notes: MYT9412 HC variant
Turning to B12, the binding result in assay [1] was “binds”.

B13: MYT11120 (antibody, V domains shown)
VH: EVQLVESGGGLVQPGGSLRLSCTASGFSLSTYAMSWVRQAPGKGLEWVGMIYINDNTHYASWAKGRFTISRDTSKNTVYLQMNSLRAEDTAVYFCARDIGISYYIGVSLWGQGTLVTVSS
VL: EIVMTQSPSTLSASVGDRVIITCQASQSIGTRLSWYQQKPGKAPKLLIYGASKLATGVPSRFSGSGSGAEFTLTISSLQPDDFATYYCLGEYSYTTTDGIAFGQGTKLTVL
notes: MYT9412 HC variant
In the case of B13, in assay [1], the binding result is given as “binds”.

B14: MYT11134 (antibody, V domains shown)
VH: EVQLVESGGGLVQPGGSLRLSCTASGFSLSTYAMSWVRQAPGKGLEWVGMIYINDNTYYASWAKGRFTISRDTSKNTVYLQMNSLRAEDTAVYFCARDIGIHYYIGVSLWGQGTLVTVSS
VL: EIVMTQSPSTLSASVGDRVIITCQASQSIGTRLSWYQQKPGKAPKLLIYGASKLATGVPSRFSGSGSGAEFTLTISSLQPDDFATYYCLGEYSYTTTDGIAFGQGTKLTVL
notes: MYT9412 HC variant
As for B14, the binding result in assay [1] was “binds”.

B15: MYT11015 (antibody, V domains shown)
VH: EVQLVESGGGLVQPGGSLRLSCTASGFSLSSYAMGWVRQAPGKGLEWVGFINAGGNTYYANWAKGRFTISRDTSKNTVYLQMNSLRAEDTAVYFCARRYSRASGWYDLWGQGTLVTVSS
VL: EIVMTQSPSTLSASVGDRVIITCQASQSISSYLAWYQQKPGKAPKLLIYAASTLASGVPSRFSGSGSGAEFTLTISSLQPDDFATYYCQSYSYHSGIDYGDVFGQGTKLTVL
notes: MYT9359 LC variant; captured on anti-human Fc sensor
For B15, the binding result in assay [2] is given as “binds”.

B16: MYT11020 (antibody, V domains shown)
VH: EVQLVESGGGLVQPGGSLRLSCTASGFSLSSYAMGWVRQAPGKGLEWVGFINAGGNTYYANWAKGRFTISRDTSKNTVYLQMNSLRAEDTAVYFCARRYSRASGWYDLWGQGTLVTVSS
VL: EIVMTQSPSTLSASVGDRVIITCQASQSISSYLAWYQQKPGKAPKLLIYAASTLASGVPSRFSGSGSGAEFTLTISSLQPDDFATYYCQSYSYSSGIDHGDVFGQGTKLTVL
notes: as for B15
Consider B16, for which, in assay [2], the binding result is “binds”.

B17: MYT11019 (antibody, V domains shown)
VH: EVQLVESGGGLVQPGGSLRLSCTASGFSLSSYAMGWVRQAPGKGLEWVGFINAGGNTYYANWAKGRFTISRDTSKNTVYLQMNSLRAEDTAVYFCARRYSRASGWYDLWGQGTLVTVSS
VL: EIVMTQSPSTLSASVGDRVIITCQASQSISSYLAWYQQKPGKAPKLLIYAASTLASGVPSRFSGSGSGAEFTLTISSLQPDDFATYYCQSYSYSSGIHYGDVFGQGTKLTVL
notes: as for B15
B17: in assay [2], the binding result is recorded as “binds”.

B18: MYT11016 (antibody, V domains shown)
VH: EVQLVESGGGLVQPGGSLRLSCTASGFSLSSYAMGWVRQAPGKGLEWVGFINAGGNTYYANWAKGRFTISRDTSKNTVYLQMNSLRAEDTAVYFCARRYSRASGWYDLWGQGTLVTVSS
VL: EIVMTQSPSTLSASVGDRVIITCQASQSISSYLAWYQQKPGKAPKLLIYAASTLASGVPSRFSGSGSGAEFTLTISSLQPDDFATYYCQSYSYSHGIDYGDVFGQGTKLTVL
notes: as for B15
As for B18, the binding result in assay [2] is listed as “binds”.
